The record followed here is the nanobody polyreactivity screen of Harvey et al. (2022).

The data set is described as follows: yeast display, Sf9 membrane polyspecificity reagent, FACS + sequencing; frameworks hold sequencing errors. The method, boiled down: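 In a synthetic yeast display library (Saccharomyces cerevisiae BJ5465), nanobody expression was induced with galactose for 36–48 hours. FACS gates were set low and high (top ~1%) using anti-HA fluorescence for expression and streptavidin fluorescence for binding of the Sf9 membrane reagent. Each polyreactivity label is drawn from the gate of origin.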
As to “IIQAGGSLRLSCAASGRTFSGYAMGWYRQAPGKERELIDDITSGGSTYYADSVKGRFTISRDNAKNTVYIQMNSLKPEDTAVYYCAAERHIRSFSSSRTYEFGYWGQGTQVTVSS”, the “polyreactivity (PSR sort gate)” value is reported as “low polyreactivity”. In the case of “KGQLVESGGGLVQAGGSLRLTCAASGSNFRFYAMGWYRQAPGKERELVAAITYRSGITYADSVKGRFTISRDNAKNTVYVQMNSLKPEDTAVYYCAARARRYTDEYDYWGQGSQVTVSS”, the “polyreactivity (PSR sort gate)” value is reported as “low polyreactivity”. The entry for “KGQLVESGGGLVQEGGSLRLSCAASGNTFVNNHMVWYRQAPGEERELVAAISRRAGSTYYADSVKGRFTISRENAKNTVYIQKNSLKPEENAVYYCAARGSRYYYVQGASKYDYWGQGTQVTVSS” is “high polyreactivity”; for “KLQLVESGGGLVQAGGSLRLSCASSGSIFVWYAMGWYIQAPGKDRELVARITSGGRTNYADSVKGRFTISRDNAKNTVYLQMNSLKPEDTAVFYCAAGRVSWSPYYYWGQGTQVTVSS” it is “high polyreactivity”. The entry for “KVHLVESGGGLVQAGGSLRLSSAAYGRTFYNNAMGWYIQAPGKERELVAAISGRGGSTYYADSLKGRFTISRDNAKNTVYVQMNILKPEDTAVYYCAATVKYSPIYDYWGQGTQVSVSS” is “high polyreactivity”; for “KVQHVESGGGLVQAGGSLRLSCAASGLIFYRYAMGWYRQAPGKERELVAAISRSGSSTYYADSVKGRFTISRDNAKNTVYLQMNSLKPEDTAVYYCNAGYGWIWDDRGYWGQGSQVTVSS” it is “high polyreactivity”; for “KVQIVESGGGLVQAGRSLRLSCAASGLTFFGNAMGWYRQAPGKERDLVATISSCGGTSYADSVKGRFTISRDNAKNTVYLQMNSLKPEDTEVYYCAADIVEEFDYWGLGTQVTVSS” it is “low polyreactivity”. The entry for “KVQLVESGAGFVQAGGSLRLSCAASGFIFPVYTMGWYRQAPGKERELVAAITQIGGSTHYADSVKGRFTISRDNAKNTVYLQMNSLKPEYTAVYYCNAVPHPYDWGQGTQVTLSS” is “low polyreactivity”; for “KVQLVESGAGLVQAGGSLRLSCAASGSTFAQYAMGWYRQAPGKERELVAAISRGGGSTYYADSVKGRFTISRDTAKNTVYLQMHSLKPEDTAVYYCAADPRYRVTLGFDYWGQGTQVTVSS” it is “high polyreactivity”. Take “KVQLVESGAGLVQAGGSLRLSCAAYGSIFVGYHMGWYRQAPGKERELVAGITGAGSTNYADSVKGRFTISRENAKNTVYLQMNSLKPEDTAVYYCAADYDTPQGTKYYYWGQGTKVTVSS”: the “polyreactivity (PSR sort gate)” value is “low polyreactivity”.

For the sequence “KVQLVESGAGLVQAGGSLRLTCAASGFTFAYYAMGWYRPAPGKERELVAAISWSGGITYYADSVKGRFTISRDNAKNTVYLQMNSLKPEDTAVDYCAAETFRGSYYDEDYDYWGQGTQVTVSS”, the “polyreactivity (PSR sort gate)” value is “low polyreactivity”. Take “KVQLVESGGGLFQAGGSLSLSCAATGSSYGGYVMGWYRQAPGKERELVASISGNGASTTYADSVKGRFTISRDNAKNTVYLQMNSLKQEDTAVYYCNARDWYIVWYEYWGQGTQVTVSS”: the “polyreactivity (PSR sort gate)” value is recorded as “low polyreactivity”. As to “KVQLVESGGGLVHAGGILRLISAASGSIFTYYYMGWYRQAPGKERELVAAISWNGGTTYYADSVKGRFTISRDNAKNTVYLQMNSLKPEDTAVYYCNKDGSYRYDYWGQGTQVTVSS”, the “polyreactivity (PSR sort gate)” value is “low polyreactivity”.

For the sequence “KVQLVESGGGLVQAGGSLRISCAASGITFVRNAMGWYRQAPGKERELVAAISSGGSTYYADSVKGSFTISRDNAKITVYLLMYSLKPEDNAVYFCAVLSSWRFSGYDYWGQGTQVNVSS”, the “polyreactivity (PSR sort gate)” value is “low polyreactivity”. As to “KVQLVESGGGLVQAGGSLRLSCAASGFIFGAYAMGWYRQAPGKERELVPSITWRGGSTYYADSVKGRFTISRDNAKNTVYLQMNSLKPEDTAVYYCAARVYLYNWQYFAYRAVDYWGQGTQVTVSS”, the “polyreactivity (PSR sort gate)” value is listed as “high polyreactivity”.

Turning to “KVQLVESGGGLVQAGGSLRLSCAASGFIFLGYAMGWYRQAPGKEREFVAVISRSGVRTYYADSVKGRFTISRDNAKNTVYLQMNSLKPEDTAVYYCAARYYSTDLEYWGQGTQVTVSS”, the “polyreactivity (PSR sort gate)” value is on record as “high polyreactivity”. “KVQLVESGGGLVQAGGSLRLSCAASGFTFLRYGMGGYRQAPGKERELVASITSGGGTNYADSVKGRFTISRDNAKNTVYLQLNSLKPEDSAVYYCNAVFFYHGTKPAFISHDYWGQGTQVTVSS”: the “polyreactivity (PSR sort gate)” value was “low polyreactivity”. The entry for “KVQLVESGGGLVQAGGSLRLSCAASGFTFYWYDMGWYRQAPGKERELVATISTGGGTNYADSVKGRFTISRDNAKNTVYLQMKSLKPEDTAVYYCAADGSAGYQWGYDFEGDYWGQGTQVTVSS” is “high polyreactivity”; for “KVQLVESGGGLVQAGGSLRLSCAASGIIFGRYAMGWYRQAPGKERELVATISRSGGTTYYADSVKGRFTISRDNAKNTVYLQMNSLKPEDTAVYYCAARWTSRYDYWGQGTQVTVSS” it is “high polyreactivity”. The entry for “KVQLVESGGGLVQAGGSLRLSCAASGRIFYVNTMGWYRQAPGKERELVATITWGGDSTYYADSVKGRFTISRDNAKNTVYLQMNSLKPEDTAVYYCAADHHDIRLNTRRYDYWGQGTQVTVSS” is “low polyreactivity”; for “KVQLVESGGGLVQAGGSLRLSCAASGRTFGDYAMGWSRQAPGKEREWVARISWDGGSTYYADSVKGRFTISRDNAKNTVYLQMNSLKPEDTAGYYCYSKSDYWGQGTQVTVSS” it is “low polyreactivity”; for “KVQLVESGGGLVQAGGSLRLSCAASGSIFGRYAMGWYIQAPGKERELVAGISSSGGRTYYADSVKGRFTISRDNAKNTVYLQMNSLKPEDTAVYYCAAVRSSWSYYYWGQGTQVTVSS” it is “high polyreactivity”. The same measure for “KVQLVESGGGLVQAGGSLRLSCAASGSTFFDNAKGWYRQAPGKERELVDAISWSGGSTYYADSVKGRFTISRDNAKNTVYFQMNSLKPEDTAVYYCAADWGHGTQVTVSS”: “low polyreactivity”. With “KVQLVESGGGLVQAGGSLRLSCASSGSIFSGYAMGWYRQAPGKERELVAAISRGGSTNYADSVKGRFTISRDNAKNTVYLQMNSLKPEDTAVYYCARDTEGKYVGYGRFGYWGQGTQVTVSS”, the “polyreactivity (PSR sort gate)” value is “low polyreactivity”. For the sequence “KVQLVESGGGLVQAGGSLRLTCAASGRIFPYYAMGWYRQAPGKERELVASIRYSAGNTYYADSVKGRFTISRDNAKNTVYLQMNSLKPEDTAVYYCWYTQNTLGNYWGQGTQVTVSS”, the “polyreactivity (PSR sort gate)” value is given as “low polyreactivity”. Turning to “KVQLVESGGGLVQSGGRLRLSCAASGSTFQIYTMGWYRQAPGKERELVAAITNGGGSTYYADSVKGRFTISRDNAKNTVYFQMISLKPEDTAVYYCAAEQSYPLIILYDYWGQGTQVTVSS”, the “polyreactivity (PSR sort gate)” value is reported as “low polyreactivity”. On to “KVQLVETGRGLVQAGGSLRISCAASGSTFGANAMVWYIQAPGKERELVAAITVRGGSTYYADSVKCRFTISRDNAKNNVYLQMISLKPEETAVYYCAARWACSTNSYYYWGQGTQVTVSS”, for which the “polyreactivity (PSR sort gate)” value was “high polyreactivity”. The entry for “LGQLVESGGGLVQAGGSLRLSCAASGFIFYYYDMGLYRQAPGKESELVATISRGGSRYYADSVKGRFTISRDNAKNTVYLQMNSLKPEDTAVYYCAAYRSFGYRNWNRFDYWGQGTQVTVSS” is “high polyreactivity”; for “LVHLQESGGGLVHAGGGLRLSCAASGNIFTYVIMGWYRQPPVKERELVAAITYGTITNYADSVKGPFTISRDNAKITVDLQMKCLKPEDSAEYHCAVQSPRIEPRLYYWGQGTEVTVSS” it is “high polyreactivity”; for “LVKLQESGGGLVQAGGSLRLSCAASGTISPGGYMGRYRQAPGKEGELVASINVGGSTNYADSVKGRFTISRDNAKNTVYLQMNSLIPEDNAVYYCAVWGRNRLQLSYWGQGTQVTVSS” it is “low polyreactivity”. Turning to “LVQLQESGGGLVQAGGSLRLSCAASGTISPGGYMGWYRQAPGKERELVASINVGGSTNYADSVKGRFTISRDNAKNTVYLQMNSLKPEDTAVYYCAVWGRNRLQLSYWGQGTQVTVSS”, the “polyreactivity (PSR sort gate)” value is reported as “low polyreactivity”.

“LVQLQESGGGLVQAGGSLRLSCAASGTISPGGYMGWYRQAPGKERELVASINVGGSTNYADSVKGRFTISRDNAKNTVYLQRNSLKPEDNAVYYCAVWGRNRLQLSYWGQGTQVTVSS”: the “polyreactivity (PSR sort gate)” value was “low polyreactivity”.

Turning to “LVQLVESGGGLVQAGGSLRLSCAASGRIFPYYMGSYRQAPGKERELVAVKSSGDGTYYADSVKGRFTISRDNAKNTVYFQMNRLKPEDTAVYYCAADAPREYVDHYKYDDDYWGQGTQVTVSS”, the “polyreactivity (PSR sort gate)” value is on record as “low polyreactivity”. Take “LVQLVESGGGLVQAGGSLRLSCAASGRTFDTYVMGWYSQAPGKERELVAAITTSGTSTYADSVKGRFTISRDNAKNTVYLQMNSLKPEDTAVYYCAADGPVYYSYVDWISFNEEYWGQGTQVTVSS”: the “polyreactivity (PSR sort gate)” value is given as “low polyreactivity”. The same measure for “LVQLVESGGGVVQAGGSLRLSSAASGSIFRNNTMGWYRQAPGKERELVAAISGRGTRTSYADSVKGRFTISRDNAKNTVYLQMNSLKPEDTAVYYCAARSWYLYYWGQGTQVTVSS”: “low polyreactivity”; for “PVLLVECGGALVQAGGSLRLTSAASGRIIKLYAMGWYRQAPGKVREFVAALTRSGARTYYADSVKGRFTISRDNAKNTVYFQMYSMKPEDSAVYSCAAYDTYDWYDYWGQGTQVTVSS”: “high polyreactivity”; for “PVQHVESGGGLVQAGGSLRLSCAASGSIFVWYAMGWYRQAPGKERELVAAITINCGSTYYADSVKGRFTISRDTAKNIVYLQMNSLKPEAKAVYYCAADYYTRDRYEFDSWGQGTQVTVSS”: “low polyreactivity”. The entry for “PVQLQESGGGLVQAGGSLRLSCAARGSIFKVVDMGLYRQAPAKEREFVATIGEGGNTYYADSVKGRFTISRDNAKNTVYLQMNSLKPEDTAVYFSAVVLGTSYRYTYWGQGTQVTVSS” is “low polyreactivity”; for “PVQLQESGGGLVQAGGSLRLSCAASGNIFDADIMGWNRQAPGKESDLVACIADGGSTNYADSVKGRFTISRDNAKNTVYLQMNSLKPEDTAVHYCAAIAYPDIPTCFDYDSDYFFRGQGTQVTVSS” it is “low polyreactivity”. The same measure for “PVQLVESGGGIVQAGGSLRLSCAASGRTFRYNPMGWSRQAPGKERELVAAITYSGGSTYYADSVKGRFTISRDNEKNTVYLQMNSMKPEETAVYYCAAGWRRFDYWGQGTQVTVSS”: “high polyreactivity”.

Turning to “PVQLVESGGGLVQAGGSLRLSCAACGRIFRYYAMGWYRQAPGKERELVAAISRSGGRTYYADSVKGRFTISRDNAKNTVYLEMNSLKPEDTAVYYCNALYYKYYPSRYDYWGLGTQVTVSS”, the “polyreactivity (PSR sort gate)” value is “high polyreactivity”.
